Reference: publication PMC5862715
Blank lines part the entries; values can stand above or below the substance they belong to.

How the values were obtained:
Test in all cases: SDS-PAGE without pre-heating, with zymogram; crude enzymes (high concentration of (NH4)2SO4) in loading buffer with 10% SDS, not pre-heated, 10% polyacrylamide gel; compared with samples heated at 100 °C for 5 min; dimer band active on xylan plate
[1] = molecular target: Xyn10AdC, CBM1 removed Xyn10A (Aspergillus fumigatus Z5)
[2] = molecular target: Xyn10A, GH10 family xylanase from Aspergillus fumigatus Z5 (Aspergillus fumigatus Z5)
[3] = molecular target: Xyn10AdLC, CBM1 and linker region removed Xyn10A (Aspergillus fumigatus Z5)

stoichiometry N [1]: 2
Substance: Xyn10AdC, CBM1 removed Xyn10A (domain or fragment)

stoichiometry N [2]: 2
Substance: Xyn10A, GH10 family xylanase from Aspergillus fumigatus Z5 (enzyme)

stoichiometry N [3]: 2
Substance: Xyn10AdLC, CBM1 and linker region removed Xyn10A (domain or fragment)
